Experimental data as given in patent US20240043504A1 (published 2024).
Positions count from the first letter of the chain named.

Biological target: SARS-CoV-2 RBD extracellular domain expressed with a C-terminal mouse IgG2a (SARS-COV-2 RBD-mFc) (SARS-CoV-2)

B1: mAb10920 (antibody, V domains shown)
VH: QVQLVESGGGVVQPGRSLRLSCAASGFTFSYYGMHWVRQAPGKGLEWVAVIWYDGSNKFYADSVKGRFTISRDNSKNTLYLQMNSLRAEDTAVYYCAAARPGYYYGMDVWGQGTTVTVSS
VL: DIQMTQSPSSLSASVGDRVTITCRASQGISNYLAWFQQKPGKAPNSLIYAASSLQRGVPSKFSGSGSGTDFTLTISSLQPEDFATYYCQQYNSYPRTFGQGTKVEIKR
Kd: 0.416 nM
t1/2: 0.658 h

B2: mAb10936 (antibody, V domains shown)
VH: QVQLVESGGGVVQPGRSLRLSCAASGFTFRNYGMHWVRQAPGKGLEWVSVIWYDGSNRYYADSVKGRFTISRDTSKNTLYLQMNSLRAEDTAVYYCARDPPITGTTGGDAFDIWGQGTMVTVSS
VL: not shown
Kd: ≤ 0.0153 nM
koff: ≤ 1e-05 s⁻¹
kon: 652000 M⁻¹ s⁻¹
t1/2: ≥ 19.2 h

B3: mAb10937 (antibody, V domains shown)
VH: QITLKESGPTLVKPTQTLTLTCTFSGFSLSTNVVGVGWIRQPPGKALEWLALIYWNDDKRYSPSLKSRLTITKDTSKNQVVLTMTNMDPVDTATYYCAHGPTGDYFDYWGQGTLVTVSS
VL: not shown
Kd: 0.114 nM
koff: 7.28e-05 s⁻¹
kon: 639000 M⁻¹ s⁻¹
t1/2: 2.64 h

B4: mAb10921 (antibody, V domains shown)
VH: EVQLVESGGGLVQPGGSLRLSCAASGITVSSNYMSWVRQAPGKGLEWVSVIYSGGSTFYADSVKGRFTISRHNSKNTLYLQMNSLRAEDTAVYYCARERNFDAFDIWGQGTMVTVSS
VL: DIQMTQSPSSVSASVGDRVTITCRASQGISSWLAWYQQKPGKAPKLLIYAASSLQSGVPSRFSGSGSGTDFTLTISSLQPEDFATYYCQQANSFPLFTFGPGTKVDIKR
Kd: ≤ 0.0375 nM
koff: ≤ 1e-05 s⁻¹
kon: 266000 M⁻¹ s⁻¹
t1/2: ≥ 19.2 h

B5: mAb10930 (antibody, V domains shown)
VH: EVQLVESGGGLVQPGRSLRLSCAASGFTFDDYAMYWVRQAPGKGLEWVSGISWNSGSIGYADSVKGRFTISRDNAKNSLYLQMNSLRAADTALYYCAKDKDWNSRGYYYYGMDVWGQGTTVTVSS
VL: not shown
Kd: ≤ 0.0431 nM
koff: ≤ 1e-05 s⁻¹
kon: 232000 M⁻¹ s⁻¹
t1/2: ≥ 19.2 h

B6: mAb10923 (antibody, V domains shown)
VH: QVQLVQSGAEVKKPGASVKVSCKASGYTFINYYIHWVRQAPGQGLEWMGWINPNSGGTNYAQKFQGRVTMTRDTSISTAYMELSRLRSDDTAVYYCAIITIFGVVTWFDPWGQGTLVTVSS
VL: not shown
Kd: 0.0435 nM
koff: 2.83e-05 s⁻¹
kon: 651000 M⁻¹ s⁻¹
t1/2: 6.79 h

B7: mAb10934 (antibody, V domains shown)
VH: not shown
VL: DIQMTQSPSSLSASVGDRVTITCQASQDIWNYINWYQQKPGKAPKLLIYDASNLKTGVPSRFSGSGSGTDFTFTISSLQPEDIATYYCQQHDDLPPTFGQGTKVEIKR
Kd: 0.0832 nM
t1/2: 1.64 h

B8: mAb10935 (antibody, V domains shown)
VH: EVQLVESGGGLVQPGGSLRLSCAASGFTVSSNYMSWVRQAPGKGLEWVSLIYSGGSTYYADSVKGRFTISRHNSKNTLYLQMNSLRSEDTAVYYCARVPLGDYYYGMDVWGQGTTVTVSS
VL: B7 VL with W30N, N31K, I33L, K55E, H91S, D93N, P96L, Q100G
Kd: ≤ 0.0261 nM
koff: ≤ 1e-05 s⁻¹
kon: 383000 M⁻¹ s⁻¹
t1/2: ≥ 19.2 h

B9: mAb10938 (antibody, V domains shown)
VH: EVQLVESGGGLVQPGGSLRLSCAVSGFTVSSNYMSWVRQAPGKGLEWVSLIYSGGSTFYADSVKGRFTISRHNSKNTLYLQMNSLRAEDTAVYYCAREGGYSYDYNYWGQGTLVTVSS
VL: B7 VL with W30R, I33L, K55E, S65I, H91Y, D93N, P96I, K103R, V104L
Kd: ≤ 0.0322 nM
t1/2: ≥ 19.2 h
